According to patent US20260274985A1 (MYTHIC THERAPEUTICS, published 2026):
Numbering of substitutions follows the chain as printed.

T1: Human TROP2 Protein, His Tag (human, UniProt P09758 27-274)
T1 construct: Bought protein; also called TACSTD2; not shown: His tag
T1 sequence (looked up): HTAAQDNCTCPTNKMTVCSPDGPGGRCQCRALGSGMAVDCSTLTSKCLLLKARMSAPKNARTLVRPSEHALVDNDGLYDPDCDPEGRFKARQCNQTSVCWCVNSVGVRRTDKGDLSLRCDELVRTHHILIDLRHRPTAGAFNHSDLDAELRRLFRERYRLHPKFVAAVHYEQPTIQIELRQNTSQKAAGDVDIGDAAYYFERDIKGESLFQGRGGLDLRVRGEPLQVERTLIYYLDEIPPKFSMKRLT

T2: Human TROP2 Protein, His Tag (Acro Biosystems) (human, UniProt P09758 27-274)
T2 construct: Bought protein; also called TACSTD2; not shown: His tag
T2 sequence: T1 sequence (looked up)

B1: MYT11636 (antibody, V domains shown)
VH: QVQLVQSGAEVKKPGASVKVSCKASHYTFTTAGMQWVRQAPGQGLEWMGWINTHSGVPKYAEDFKGRVTISADTSTSTAYLQLSSLKSEDTAVYYCARSGFGSSYWYFDVWGQGTLVTVSS
VL: DIQMTQSPSSLSASVGDRVTITCKASQDVSTAVAWYQQKPGKAPKLLIYSASYRYTGVPSRFSGSGSGTDFTLTISSLQPEDFAVYYCQQHYITPLTFGQGTKLEIK
notes: IgG from supernatant; His at HCV position 26; also called datopotamab variant H1 01
B2: MYT11651 (antibody, V domains shown)
VH: B1 VH with H26G, S55H
VL: B1 VL
notes: IgG from supernatant; His at HCV position 55; also called datopotamab variant H2 06
B3: MYT11649 (antibody, V domains shown)
VH: B1 VH with H26G, T53H
VL: B1 VL
notes: IgG from supernatant; His at HCV position 53; also called datopotamab variant H2 04
B4: MYT11664 (antibody, V domains shown)
VH: B1 VH with H26G, R98H
VL: B1 VL
notes: IgG from supernatant; His at HCV position 98; also called datopotamab variant H3 02
B5: MYT11675 (antibody, V domains shown)
VH: B1 VH with H26G, D109H
VL: B1 VL
B6: MYT11648 (antibody, V domains shown)
VH: B1 VH with H26G, N52H
VL: B1 VL
notes: IgG from supernatant; His at HCV position 52; also called datopotamab variant H2 03
B7: MYT11655 (antibody, V domains shown)
VH: B1 VH with H26G, K59H
VL: B1 VL
notes: IgG from supernatant; His at HCV position 59; also called datopotamab variant H2 10
B8: MYT11673 (antibody, V domains shown)
VH: B1 VH with H26G, Y107H
VL: B1 VL
notes: IgG from supernatant; also called datopotamab variant H3 11
B9: MYT11642 (antibody, V domains shown)
VH: B1 VH with H26G, A32H
VL: B1 VL
notes: IgG from supernatant; His at HCV position 32; also called datopotamab variant H1 07
B10: MYT11646 (antibody, V domains shown)
VH: B1 VH with H26G, W50H
VL: B1 VL
notes: IgG from supernatant; His at HCV position 50; also called datopotamab variant H2 01
B11: MYT11667 (antibody, V domains shown)
VH: B1 VH with H26G, F101H
VL: B1 VL
notes: IgG from supernatant; His at HCV position 101; also called datopotamab variant H3 05
B12: MYT11640 (antibody, V domains shown)
VH: B1 VH with H26G, T30H
VL: B1 VL
notes: IgG from supernatant; His at HCV position 30; also called datopotamab variant H1 05
B13: MYT11657 (antibody, V domains shown)
VH: B1 VH with H26G, A61H
VL: B1 VL
notes: IgG from supernatant; His at HCV position 61; also called datopotamab variant H2 12
B14: MYT11652 (antibody, V domains shown)
VH: B1 VH with H26G, G56H
VL: B1 VL
notes: IgG from supernatant; His at HCV position 56; also called datopotamab variant H2 07
B15: MYT11656 (antibody, V domains shown)
VH: B1 VH with H26G, Y60H
VL: B1 VL
notes: IgG from supernatant; His at HCV position 60; also called datopotamab variant H2 11
B16: MYT11661 (antibody, V domains shown)
VH: B1 VH with H26G, K65H
VL: B1 VL
notes: IgG from supernatant; His at HCV position 65; also called datopotamab variant H2 16
B17: MYT11650 (antibody, V domains shown)
VH: B1 VH with H26G, H54A
VL: B1 VL
notes: IgG from supernatant; Ala at HCV position 54 (starting residue His); also called datopotamab variant H2 05
B18: MYT11647 (antibody, V domains shown)
VH: B1 VH with H26G, I51H
VL: B1 VL
notes: IgG from supernatant; His at HCV position 51; also called datopotamab variant H2 02
B19: MYT11654 (antibody, V domains shown)
VH: B1 VH with H26G, P58H
VL: B1 VL
notes: IgG from supernatant; His at HCV position 58; also called datopotamab variant H2 09
B20: MYT11641 (antibody, V domains shown)
VH: B1 VH with H26G, T31H
VL: B1 VL
notes: IgG from supernatant; His at HCV position 31; also called datopotamab variant H1 06
B21: MYT11658 (antibody, V domains shown)
VH: B1 VH with H26G, E62H
VL: B1 VL
notes: IgG from supernatant; His at HCV position 62; also called datopotamab variant H2 13
B22: MYT11659 (antibody, V domains shown)
VH: B1 VH with H26G, D63H
VL: B1 VL
notes: IgG from supernatant; His at HCV position 63; also called datopotamab variant H2 14
B23: MYT11662 (antibody, V domains shown)
VH: B1 VH with H26G, G66H
VL: B1 VL
notes: IgG from supernatant; His at HCV position 66; also called datopotamab variant H2 17
B24: MYT11644 (antibody, V domains shown)
VH: B1 VH with H26G, M34H
VL: B1 VL
notes: IgG from supernatant; His at HCV position 34; also called datopotamab variant H1 09
B25: MYT11637 (antibody, V domains shown)
VH: B1 VH with H26G, Y27H
VL: B1 VL
notes: IgG from supernatant; His at HCV position 27; also called datopotamab variant H1 02
B26: MYT11638 (antibody, V domains shown)
VH: B1 VH with H26G, T28H
VL: B1 VL
notes: IgG from supernatant; His at HCV position 28; also called datopotamab variant H1 03
B27: MYT11653 (antibody, V domains shown)
VH: B1 VH with H26G, V57H
VL: B1 VL
notes: IgG from supernatant; His at HCV position 57; also called datopotamab variant H2 08
B28: MYT11660 (antibody, V domains shown)
VH: B1 VH with H26G, F64H
VL: B1 VL
notes: IgG from supernatant; His at HCV position 64; also called datopotamab variant H2 15
B29: MYT11674 (antibody, V domains shown)
VH: B1 VH with H26G, F108H
VL: B1 VL
notes: IgG from supernatant; also called datopotamab variant H3 12
B30: MYT11639 (antibody, V domains shown)
VH: B1 VH with H26G, F29H
VL: B1 VL
notes: IgG from supernatant; His at HCV position 29; also called datopotamab variant H1 04
B31: MYT12445 (hu7E6SVG variant, LCV substitutions at 60, 94 (Ala at 94)) (antibody, V domains shown)
VH: QVQLQESGPGLVKPSETLSLTCTVSGGSISSYGVHWIRQPPGKGLEWIGVIWTSGVTDYNSALMGRVTISVDTSKNQFSLKLSSVTAADTAVYYCARDGDYDRYTMDYWGQGTLVTVSS
VL: DIVMTQSPDSLAVSLGERATINCRASKSVSTSGYSYMHWYQQKPGQPPKLLIYLASNLEHGVPDRFSGSGSGTDFTLTISSLQAEDVAVYYCQASRELPYTFGQGTKLEIK
notes: Full IgG in Expi293 supernatant
B32: MYT12455 (hu7E6SVG variant, LCV substitutions at 59, 60, 94 (Ala at 94)) (antibody, V domains shown)
VH: B31 VH
VL: B31 VL with E59H
notes: as for B31
B33: MYT12446 (hu7E6SVG variant, LCV substitutions at 60, 97) (antibody, V domains shown)
VH: B31 VH
VL: B31 VL with A94H, E97H
notes: as for B31
B34: MYT12472 (hu7E6SVG variant, LCV substitutions at 93, 97, 101) (antibody, V domains shown)
VH: B31 VH
VL: B31 VL with H60S, Q93H, A94H, E97H, T101H
notes: as for B31
B35: MYT12466 (hu7E6SVG variant, LCV substitutions at 60, 93, 101) (antibody, V domains shown)
VH: B31 VH
VL: B31 VL with Q93H, A94H, T101H
notes: as for B31
B36: MYT12453 (hu7E6SVG variant, LCV substitutions at 97, 101) (antibody, V domains shown)
VH: B31 VH
VL: B31 VL with H60S, A94H, E97H, T101H
notes: as for B31
B37: MYT12447 (hu7E6SVG variant, LCV substitutions at 60, 101) (antibody, V domains shown)
VH: B31 VH
VL: B31 VL with A94H, T101H
notes: as for B31
B38: MYT12448 (hu7E6SVG variant, LCV substitutions at 93, 94 (Ala at 94)) (antibody, V domains shown)
VH: B31 VH
VL: B31 VL with H60S, Q93H
notes: as for B31
B39: MYT12450 (hu7E6SVG variant, LCV substitutions at 93, 101) (antibody, V domains shown)
VH: B31 VH
VL: B31 VL with H60S, Q93H, A94H, T101H
notes: as for B31
B40: MYT12451 (hu7E6SVG variant, LCV substitutions at 94, 97 (Ala at 94)) (antibody, V domains shown)
VH: B31 VH
VL: B31 VL with H60S, E97H
notes: as for B31
B41: MYT12469 (hu7E6SVG variant, LCV substitutions at 60, 97, 101) (antibody, V domains shown)
VH: B31 VH
VL: B31 VL with A94H, E97H, T101H
notes: as for B31
B42: MYT12449 (hu7E6SVG variant, LCV substitutions at 93, 97) (antibody, V domains shown)
VH: B31 VH
VL: B31 VL with H60S, Q93H, A94H, E97H
notes: as for B31
B43: MYT12454 (hu7E6SVG variant, LCV substitutions at 59, 60, 93) (antibody, V domains shown)
VH: B31 VH
VL: B31 VL with E59H, Q93H, A94H
notes: as for B31

What was measured:
[1] = target: T1, Human TROP2 Protein, His Tag; test: BLI (Octet)
[2] = target: T2, Human TROP2 Protein, His Tag (Acro …); test: BLI (Octet)

Binder	binding result [1]	binding result [2]
B1	binds	
B2	binds	
B3	binds	
B4	binds	
B5	binds	
B6	binds	
B7	binds	
B8	binds	
B9	binds	
B10	binds	
B11	binds	
B12	binds	
B13	binds	
B14	binds	
B15	binds	
B16	binds	
B17	binds	
B18	binds	
B19	binds	
B20	binds	
B21	binds	
B22	binds	

Binder	binding result [1]	binding result [2]
B23	binds	
B24	binds	
B25	binds	
B26	binds	
B27	binds	
B28	binds	
B29	binds	
B30	binds	
B31		binds
B32		binds
B33		binds
B34		binds
B35		binds
B36		binds
B37		binds
B38		binds
B39		binds
B40		binds
B41		binds
B42		binds
B43		binds
